Experimental data: US20170267752A1 (Ablynx, published 2017)

Columns and labels:
[1] = molecular target: membrane bound human TNF (mTNF), human TNF R77T/S78T variant on HEK293H-mTNF cells (human) (UniProt P01375); assay: competition FACS on HEK293H-mTNF cells, competitor Enbrel at EC90 (0.2 nM)
[2] = molecular target: membrane bound human TNF (mTNF), human TNF R77T/S78T variant on HEK293H-mTNF cells (human) (UniProt P01375); assay: competition FACS on HEK293H-mTNF cells, competitor Enbrel at EC30 (0.02 nM)
biot-hTNFα = biot-hTNFα (human, UniProt P01375 77-233, biotinylated (site not stated)); assay: competition ELISA according to Example 5 (assay not given)
Chain of biot-hTNFα (P01375 77-233 limits assumed): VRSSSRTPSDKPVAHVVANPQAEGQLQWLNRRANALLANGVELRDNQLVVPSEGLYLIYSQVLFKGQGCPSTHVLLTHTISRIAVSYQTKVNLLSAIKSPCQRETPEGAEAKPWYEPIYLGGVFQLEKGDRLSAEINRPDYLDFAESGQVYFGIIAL
Description: The SHIME model consists of five reactors which sequentially simulate the stomach (acid conditions and pepsin digestion), small intestine (digestive processes) and the 3 regions of the large intestine, i.e. the ascending (“A”), transverse (“T”) and descending colon (“D”) (microbial processes). […] All GI fluids were provided by ProDigest (Technologiepark 4, 9052 Zwijnaarde, Belgium). The anti-TNF Nanobodies were tested for a maximum period of 39 hours in the GI-fluids. After the incubation in the GI-fluids, stability of the Nanobodies was determined via functionality testing in a competition ELISA. The Nanobodies were tested at a fixed concentration of 100 μg/ml at 37° C. in 5 different GI fluids in the SHIMS model. At different time-points samples were taken and stored in the −20° C. with or without the addition of protease inhibitors, according to the schedule in Table 5.1. The samples were transferred to coated ELISA plates and subsequently tested in the competition ELISA. […] After blocking, a fixed concentration of 0.3 nM biot-hTNFα together with a titration series of the variants in the different GI fluids was added. Detection was performed with extravidin-HRP.

Chain of membrane bound human TNF (mTNF), human TNF R77T/S78T variant on HEK293H-mTNF cells (human) (P01375 whole entry, stated change not applied): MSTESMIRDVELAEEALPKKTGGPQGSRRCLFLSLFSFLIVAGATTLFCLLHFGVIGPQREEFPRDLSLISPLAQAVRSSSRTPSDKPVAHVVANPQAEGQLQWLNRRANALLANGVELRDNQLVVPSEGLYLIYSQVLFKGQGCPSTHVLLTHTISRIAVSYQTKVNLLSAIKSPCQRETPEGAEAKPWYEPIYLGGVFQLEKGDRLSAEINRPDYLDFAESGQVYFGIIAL

Binder | IC50 [1] [nM] | IC50 [2] [nM] | IC50 (biot-hTNFα) [nM] | fold increase of IC50 compared to 00021 (biot-hTNFα) [fold]
A016600021 (VHH) VHH: DVQLVESGGGVVQPGGSLRLSCTASGFTFSTADMGWFRQAPGKGREFVARISGIDGTTYYDEPVKGRFTISRDNSKNTVYLQMNSLRPEDTALYYCRSPRYADQWSAYDYWGQGTLVTVSS | 0.65 | 0.43 | 0.67 | 
A016600045 (VHH) VHH: DVQLVESGGGVVQPGGSLRLSCTASGFTFSTADMGWFRQAPGKGREFVARISGIDGTTYYDEPVKGRFTISRDNSKNTVYLQMNSLRPEDTALYYCRSPRYADQWSAHDYWGQGTLVTVSS | 0.76 | 0.54 |  | 
A016600038 (VHH) VHH: DVQLVESGGGVVQPGGSLRLSCTASGFTFSTADMGWFRQAPGKGREFVARISGIDGTTYYDEPVKGRFTISRDNAKNTVYLQMNSLRPEDTALYYCRSPRYADQWSAYDYWGQGTLVTVSS | 0.7 | 0.43 |  | 

Now from value to binder:

IC50 [1] [nM] | IC50 [2] [nM] | IC50 (biot-hTNFα) [nM] | fold increase of IC50 compared to 00021 (biot-hTNFα) [fold] | Binder
 |  | 1.13 | 2 to 5 | A016600046 (VHH, Y100dL substitution in CDR3; also called A016600046 100dL; A016600046 Y100dL) VHH: DVQLVESGGGVVQPGGSLRLSCTASGFTFSTADMGWFRQAPGKGREFVARISGIDGTTYYDEPVKGRFTISRDNSKNTVYLQMNSLRPEDTALYYCRSPRYADQWSALDYWGQGTLVTVSS
 |  | 3.56 | 2 to 5 | A016600052 (VHH, S49C, I69C (intradomain disulfide) and Y100dL) VHH: DVQLVESGGGVVQPGGSLRLSCTASGFTFSTADMGWFRQAPGKGREFVCRISGIDGTTYYDEPVKGRFTCSRDNSKNTVYLQMNSLRPEDTALYYCRSPRYADQWSALDYWGQGTLVTVSS
